Measurements from patent US20150330991A1 (GWANGJU INSTITUTE OF SCIENCE AND TECHNOLOGY, published 2015).

Experiments:
BSA = biological target: T1, BSA (bovine, UniProt P02769); assay: phage ELISA, wells coated with 5 µg/ml protein, anti-M13-HRP, absorbance at 450 nm
T1 construct: not further described; off-target control protein of the specificity ELISA
Method: In order to investigate specificities to streptavidin, of peptides (Strep_opti1 and Strep_opti2) obtained through sequencing, recombinant phages expressing these peptides were used to investigate specificities to streptavidin, BSA, ovalbumin, and VEGF. First, 5 μg/ml streptavidin, BSA, ovalbumin, and VEGF were put in a 96-well ELISA plate (50 μl per well), and then allowed to stand at 4° C. overnight. Next day, all the wells were washed three times with 0.1% PBST, and blocked at room temperature for 2 hrs using 2% BSA diluted with PBS. Then, the solution was discarded, followed by washing with 0.1% PBST three times. 800 μl of recombinant phages of each of Strep_opti1 and Strep_opti2 and 200 μl of 10% BSA were added thereto, and each 100 μl was dispensed into streptavidin, BSA, ovalbumin, and VEGF wells, followed by standing at 27° C. for 1 hr. After washing five times with 0.1% PBST solution, the HRP-conjugated anti-M13 antibody (GE Healthcare) was diluted to 1:1,000, and then the reaction was performed at 27° C. for 1 hr. After washing five times with 0.1% PBST, 100 μl of the TMB solution was dispensed into each well to induce a colorimetric reaction, and then the reaction was stopped by adding 100 μl of 1 M HCl. The absorbance was measured at 450 nm.

streptavidin [1] = biological target: T2, streptavidin (UniProt P22629 37-163, limits assumed); assay: SPR (BIAcore X), streptavidin immobilised on CM5 chip, synthetic peptide as analyte
T2 construct: Immobilised on a CM5 chip (2000 RU) for SPR; coated on plates for ELISA; also called streptavidin protein
Method: (§1) A streptavidin-binding peptide optimized peptide and an existing peptide were synthesized (Anygen). The affinity measurement was conducted using BIAcore X (Biacore AB, Uppsala, Sweden). Here, 2000 RU of streptavidin was allowed to flow on the CM5 chip (Biacore) for immobilization. PBS (pH 7.4) was used as a running buffer, and the kinetics at different concentrations was measured under a flow rate of 30 μl per minute. The affinity was calculated using BlAevaluation software (Biacore AB, Uppsala, Sweden).
(§2) Optimized peptide Strep_opti1 and control peptide […] were synthesized, and affinities thereof were measured using the SPR Biacore system.

streptavidin [2] = biological target: T2, streptavidin; assay: SPR (BIAcore X), ratio of KD values
Method: as §1, §2

streptavidin [3] = biological target: T2, streptavidin; assay: phage ELISA, wells coated with 5 µg/ml protein, anti-M13-HRP, absorbance at 450 nm
Method: In order to investigate specificities to streptavidin, of peptides (VEGFR1_opti1, VEGFR1_opti2, and VEGFR1_opti3) obtained through sequencing, recombinant phages expressing these peptides were used to investigate specificities to VEGFR1, VEGFR2, streptavidin, HSA, TNF, and VEGF. First, 5 μg/ml VEGFR1, VEGFR2, streptavidin, HSA, TNF, and VEGF were put in a 96-well ELISA plate (50 μl per well), and then allowed to stand at 4° C. overnight. The next day, all the wells were washed three times with 0.1% PBST, and blocked at room temperature for 2 hrs using 2% BSA diluted with PBS. Then, the whole solution was discarded, followed by washing three times with 0.1% PBST. 800 μl of recombinant phages of each of VEGFR1_opti1, VEGFR1_opti2, and VEGFR1_opti3 and 200 μl of 10% BSA were added thereto, and each 100 μl was dispensed into VEGFR1, VEGFR2, streptavidin, HSA, TNF, and VEGF wells, followed by standing at 27° C. for 1 hr. After washing five times with 0.1% PBST solution, the HRP-conjugated anti-M13 antibody (GE Healthcare) was diluted to 1:1,000, and then the reaction was performed at 27° C. for 1 hr. After washing with 0.1% PBST five times, 100 μl of the TMB solution was dispensed into each well to induce a colorimetric reaction, and then the reaction was stopped by adding 100 μl of 1 M HCl. The absorbance was measured at 450 nm.

[4] = biological target: T3, fibronectin extra domain B (ED-B) (UniProt P02751 1266-1356, biotinylated (biotin ED-B), site not stated); assay: SPR (Biacore X), biotin-EDB on a streptavidin SA chip
T3 construct: domain: ED-B; Biotin-EDB captured on a streptavidin SA chip (2,000 RU) for SPR and on streptavidin-coated wells for ELISA; also called biotin ED-B; biotin-EDB
Method: (§3) The bipodal peptide binder found from BPB2EDB, BPB3EDB, and BPB4EDB maturation libraries were synthesized (Anygen, Korea). The affinity measurement was conducted using BIAcore X (Biacore AB, Uppsala, Sweden). 2,000 RU of biotin-EDB was allowed to flow on the streptavidin SA chip (Biacore) for immobilization. PBS (pH 7.4) was used as a running buffer, and kinetics at different concentrations was measured under a flow rate of 30 μl per minute. The affinity was calculated using BlAevaluation software (Biacore AB, Uppsala, Sweden).

[5] = biological target: T3, fibronectin extra domain B (ED-B); assay: SPR (BIAcore X), biotin-EDB on streptavidin SA chip, synthetic peptide as analyte; peptide 1
Method: as §3

[6] = biological target: T3, fibronectin extra domain B (ED-B); assay: SPR (BIAcore X), biotin-EDB on streptavidin SA chip
[7] = biological target: T4, vascular endothelial growth factor receptor 1 (VEGFR1) (UniProt P17948 27-756, limits assumed); assay: SPR (BIAcore X), from RU at 5 µM against the control's RU at 200 µM
T4 construct: Immobilised on a CM5 chip (7000 RU) for SPR; coated on plates for ELISA; also called VEGFR1 protein
Method: as §1, with “VEGFR1-binding” for “streptavidin-binding”, “7000” for “2000”, “VEGFR1” for “streptavidin”
Optimized peptide VEGFR1_opti1 and control peptide GNQWFI were synthesized, and affinities thereof were measured using the SPR Biacore system.

[8] = biological target: T3, fibronectin extra domain B (ED-B); assay: SPR (BIAcore X), biotin-EDB on streptavidin SA chip, synthetic peptide as analyte; peptide 2
Method: as §3

T2 sequence (P22629 37-163 limits assumed): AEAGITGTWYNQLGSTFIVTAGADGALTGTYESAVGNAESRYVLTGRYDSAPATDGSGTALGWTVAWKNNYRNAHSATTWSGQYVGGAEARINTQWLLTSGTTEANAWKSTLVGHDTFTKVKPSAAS
T3 sequence (P02751 1266-1356 limits assumed): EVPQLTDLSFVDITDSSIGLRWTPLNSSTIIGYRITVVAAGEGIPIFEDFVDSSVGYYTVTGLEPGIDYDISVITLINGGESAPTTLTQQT
T1 sequence (P02769 25-607 limits assumed): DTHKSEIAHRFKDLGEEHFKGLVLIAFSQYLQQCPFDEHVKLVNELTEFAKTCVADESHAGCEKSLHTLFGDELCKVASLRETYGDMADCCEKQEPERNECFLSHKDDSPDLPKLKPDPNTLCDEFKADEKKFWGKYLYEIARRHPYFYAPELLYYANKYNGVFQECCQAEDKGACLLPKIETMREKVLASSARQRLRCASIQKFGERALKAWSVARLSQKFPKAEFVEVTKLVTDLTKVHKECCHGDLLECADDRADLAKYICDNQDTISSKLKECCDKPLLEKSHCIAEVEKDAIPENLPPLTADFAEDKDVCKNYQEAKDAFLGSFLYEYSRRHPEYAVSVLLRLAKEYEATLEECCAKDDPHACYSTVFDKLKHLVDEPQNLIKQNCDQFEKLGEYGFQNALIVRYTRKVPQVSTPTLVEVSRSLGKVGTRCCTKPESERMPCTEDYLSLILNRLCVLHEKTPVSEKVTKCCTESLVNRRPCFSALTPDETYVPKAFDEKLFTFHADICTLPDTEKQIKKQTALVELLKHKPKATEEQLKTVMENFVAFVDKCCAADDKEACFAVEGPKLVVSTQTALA
T4 sequence (P17948 27-756 limits assumed): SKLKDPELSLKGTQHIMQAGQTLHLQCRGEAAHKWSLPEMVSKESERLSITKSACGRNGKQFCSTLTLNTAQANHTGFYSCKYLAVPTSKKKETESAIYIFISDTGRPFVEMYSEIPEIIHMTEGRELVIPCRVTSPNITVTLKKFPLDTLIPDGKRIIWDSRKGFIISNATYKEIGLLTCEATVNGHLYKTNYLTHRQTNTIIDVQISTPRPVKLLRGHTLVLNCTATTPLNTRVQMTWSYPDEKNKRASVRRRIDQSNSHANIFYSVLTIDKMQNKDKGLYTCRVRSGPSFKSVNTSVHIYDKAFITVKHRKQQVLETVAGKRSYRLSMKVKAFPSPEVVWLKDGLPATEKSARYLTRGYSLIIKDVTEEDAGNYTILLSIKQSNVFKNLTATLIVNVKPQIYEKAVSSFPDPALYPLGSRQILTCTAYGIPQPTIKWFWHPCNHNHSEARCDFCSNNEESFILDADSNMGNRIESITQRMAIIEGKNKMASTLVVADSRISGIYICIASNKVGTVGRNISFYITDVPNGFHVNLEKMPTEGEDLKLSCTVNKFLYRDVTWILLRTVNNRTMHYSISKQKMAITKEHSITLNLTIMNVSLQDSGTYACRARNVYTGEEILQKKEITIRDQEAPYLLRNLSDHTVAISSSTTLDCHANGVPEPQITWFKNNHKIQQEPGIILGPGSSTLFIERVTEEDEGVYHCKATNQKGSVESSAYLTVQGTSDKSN

WSHPQFEKGGGSWTWENGKWTWKGAHPQVR (Synthetic peptide in SPR) [Strep_opti1]
binding result (BSA): no binding
Kd (streptavidin [1]): 67 nM
fold increase in affinity compared with control peptide WSHPQFEK (streptavidin [2]): 1220 fold

GNQWFIGGGSWTWENGKWTWKGQQAIQP (also called KPI-BPB VEGFR1_opti3) [VEGFR1_opti3]
binding result (streptavidin [3]): no binding

B1: peptide 1 (WGGPVRGSWTWENGKWTWKGIIRLEQ) (peptide)
peptide: WGGPVRGSWTWENGKWTWKGIIRLEQ
notes: Synthetic in SPR; on phage in the colony ELISA; also called BPB2 peptide 1
koff [4]: 0.02 s⁻¹
kon [4]: 250000 M⁻¹ s⁻¹
Kd [5]: 115 nM

CSSPIQGSWTWENGKWTWKGIIRLEQ (also called BPB2EDB; BPB2) [peptide 3 (CSSPIQGSWTWENGKWTWKGIIRLEQ)]
Kd [6]: 16 nM
koff [6]: 0.00051 s⁻¹
kon [6]: 30000 M⁻¹ s⁻¹

GNQWFIGGGSWTWENGKWTWKGKLQNPM (also called KPI-BPB VEGFR1_opti2) [VEGFR1_opti2]
binding result (streptavidin [3]): no binding

B2: VEGFR1_opti1 (peptide)
peptide: GNQWFIGGGSWTWENGKWTWKGRIPKNR
notes: Synthetic peptide in SPR; also called optimized peptide VEGFR1_opti1; KPI-BPB VEGFR1_opti1
fold increase in affinity compared with the control peptide [7]: ~360 fold
binding result (streptavidin [3]): no binding

WSHPQFEKGGGSWTWENGKWTWKGTLIHPM [Strep_opti2]
binding result (BSA): no binding

B3: peptide 2 (ADGRVRGSWTWENGKWTWKGIIRLEQ) (peptide)
peptide: ADGRVRGSWTWENGKWTWKGIIRLEQ
notes: Synthetic in SPR; on phage in the colony ELISA; also called BPB2 peptide 2
Kd [8]: 35 nM
koff [4]: 0.01 s⁻¹
kon [4]: 370000 M⁻¹ s⁻¹

B4: streptavidin-binding peptide WSHPQFEK (peptide)
peptide: WSHPQFEK
notes: Synthetic control peptide in SPR; also called known peptide
Kd (streptavidin [1]): 82000 nM
